Test results: patent WO2005107784A1 (dated 2005)

T1: human Mpl (full length, expressed on BaF3 cells) (human, UniProt P40238 26-635)
T1 sequence: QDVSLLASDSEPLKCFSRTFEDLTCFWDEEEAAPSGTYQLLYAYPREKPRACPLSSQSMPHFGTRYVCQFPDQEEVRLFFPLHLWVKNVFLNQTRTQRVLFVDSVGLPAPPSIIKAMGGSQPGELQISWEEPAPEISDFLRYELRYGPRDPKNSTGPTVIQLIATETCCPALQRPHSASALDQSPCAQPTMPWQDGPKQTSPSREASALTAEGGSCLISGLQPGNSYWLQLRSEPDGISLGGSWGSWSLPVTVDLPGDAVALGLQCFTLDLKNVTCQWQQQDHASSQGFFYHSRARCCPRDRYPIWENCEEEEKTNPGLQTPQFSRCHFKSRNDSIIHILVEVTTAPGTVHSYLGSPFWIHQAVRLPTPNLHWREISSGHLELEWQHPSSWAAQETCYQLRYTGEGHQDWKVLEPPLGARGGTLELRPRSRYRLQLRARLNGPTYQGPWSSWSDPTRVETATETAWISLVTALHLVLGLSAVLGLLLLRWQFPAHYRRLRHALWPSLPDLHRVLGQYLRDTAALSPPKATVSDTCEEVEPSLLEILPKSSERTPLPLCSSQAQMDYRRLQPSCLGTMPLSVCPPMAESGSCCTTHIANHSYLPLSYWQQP


Tests used:
[1] = biological target: human Mpl (full length, expressed on BaF3 cells) (human) (UniProt P40238); test: cell-based or functional assay
[2] = biological target: T1, human Mpl (full length, expressed on …); test: cell-based or functional assay

Molecule | BaF-human Mpl EC50 (cell proliferation, WST-8) [1] | TPO-like agonist activity, BaF-human Mpl EC50 (cell proliferation, WST-8) [2]
recombinant human TPO (rhTPO, R&D) (from UniProt P40225 22-353) (ligand) | 76 pM | –
anti-human Mpl antibody VB22B IgG (antibody, V domains shown) VH: QVQLQQSGPELVKPGASVKISCKASGYAFTNSWMNWVKQRPGKGLEWIGRIYPGDGETIYNGKFRVKATLTADKSSSTAYMDISSLTSEDSAVYFCARGYDDYSFAYWGQGTLVTVSA VL: DIVMTQAAPSIPVTPGESVSISCRSSKSLLHSNGNTYLYWFLQRPGQSPQLLIYRMSNLASGVPDRFSGSGSGTAFTLRISRVEAEDVGVYYCMQHIEYPFTFGSGTKLEIK | – | > 30000 pM
VB22B Diabody (scFv) scFv: QVQLQQSGPELVKPGASVKISCKASGYAFTNSWMNWVKQRPGKGLEWIGRIYPGDGETIYNGKFRVKATLTADKSSSTAYMDISSLTSEDSAVYFCARGYDDYSFAYWGQGTLVTVSAGGGGSDIVMTQAAPSIPVTPGESVSISCRSSKSLLHSNGNTYLYWFLQRPGQSPQLLIYRMSNLASGVPDRFSGSGSGTAFTLRISRVEAEDVGVYYCMQHIEYPFTFGSGTKLEIK | – | 61 pM
VB22B sc(Fv)2 (scFv) scFv: QVQLQQSGPELVKPGASVKISCKASGYAFTNSWMNWVKQRPGKGLEWIGRIYPGDGETIYNGKFRVKATLTADKSSSTAYMDISSLTSEDSAVYFCARGYDDYSFAYWGQGTLVTVSAGGGGSGGGGSGGGGSDIVMTQAAPSIPVTPGESVSISCRSSKSLLHSNGNTYLYWFLQRPGQSPQLLIYRMSNLASGVPDRFSGSGSGTAFTLRISRVEAEDVGVYYCMQHIEYPFTFGSGTKLEIKGGGGSGGGGSGGGGSQVQLQQSGPELVKPGASVKISCKASGYAFTNSWMNWVKQRPGKGLEWIGRIYPGDGETIYNGKFRVKATLTADKSSSTAYMDISSLTSEDSAVYFCARGYDDYSFAYWGQGTLVTVSAGGGGSGGGGSGGGGSDIVMTQAAPSIPVTPGESVSISCRSSKSLLHSNGNTYLYWFLQRPGQSPQLLIYRMSNLASGVPDRFSGSGSGTAFTLRISRVEAEDVGVYYCMQHIEYPFTFGSGTKLEIK | – | 27 pM
